Measurements as given in paper PMC4798592, “A Surfactant-Induced Functional Modulation of a Global Virulence Regulator from Staphylococcus aureus” (PLoS ONE, 2016).

Molecular target: the molecule itself
Assay: cross-linking; glutaraldehyde-mediated cross-linking of rSarA (10 uM) in buffer B [20 mM phosphate buffer (pH 8.0), 100 mM NaCl, 5% glycerol] or buffer C (buffer B with 0.7 mM TX-100); analysed by SDS-13.5% PAGE

B1: recombinant S. aureus SarA (rSarA) (natural protein)
chain: MAITKINDCFELLSMVTYADKLKSLIKKEFSISFEEFAVLTYISENKEKEYYLKDIINHLNYKQPQVVKAVKILSQEDYFDKKRNEHDERTVLILVNAQQRKKIESLLSRVNKRITEANNEIEL
notes: source: purified as described [8]
For B1, the “stoichiometry N” value was 2.
